The values that follow come from patent publication US20180282719A1 (published 2018).

In test [1] the target is T1, recombinant soluble human IL-6 receptor (SR344) (human, UniProt P08887 20-344, biotinylated (sites not given) where immobilized via streptavidin or used in phage ELISA).
T1 construct: also called soluble IL-6 receptor; membrane-type IL-6 receptor (when biotinylated and immobilized on the chip)
T1 sequence (looked up): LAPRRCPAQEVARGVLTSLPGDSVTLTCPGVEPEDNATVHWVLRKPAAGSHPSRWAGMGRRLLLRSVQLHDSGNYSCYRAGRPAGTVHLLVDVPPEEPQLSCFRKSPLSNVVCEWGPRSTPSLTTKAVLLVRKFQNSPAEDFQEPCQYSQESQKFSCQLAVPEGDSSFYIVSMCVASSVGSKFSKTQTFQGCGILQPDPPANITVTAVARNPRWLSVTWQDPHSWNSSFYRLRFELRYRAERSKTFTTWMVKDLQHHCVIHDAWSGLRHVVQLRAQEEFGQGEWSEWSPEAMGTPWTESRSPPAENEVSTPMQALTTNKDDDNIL
Kind of test: SPR Biacore T100, antibody on protein A/G chip, SR344 analyte, pH 7.4, 37 C. On the procedure:
Kinetic analysis of antigen-antibody reactions at pH 7.4 and pH 5.8 was carried out using a Biacore T100™ surface plasmon resonance system (GE Healthcare) for the four types of antibodies prepared: WT-IgG1, H54/L28-IgG1, H170/L82-IgG1, and Fv4-IgG1 (buffer: 10 mM MES (pH 7.4 or pH 5.8), 150 mM NaCl, 0.05% Surfactant P20 (polyoxyethelene sorbitan monolaurate)). The antibodies were bound to a sensor chip on which recomb-protein A/G (Pierce) was immobilized by amine coupling, and SR344 adjusted to an appropriate concentration was injected therein as an analyte. The association with and dissociation from SR344 of each type of antibody were observed on a real-time basis. All the measurements were carried out at 37° C. Association rate constants kₐ (1/Ms) and dissociation rate constants kd (1/s) were calculated using Biacore T100™ Evaluation Software (GE Healthcare), and dissociation constants KD (M) were calculated based on those values (Table 17).

The target in test [2] is T1, recombinant soluble human IL-6 receptor …. Kind of test: SPR Biacore T100, biotinylated SR344 on streptavidin chip (model of membrane IL-6 receptor), antibody 0.5 ug/mL as analyte, 37 C. The method, then:
The binding to membrane IL-6 receptor was evaluated by evaluating the binding to the IL-6 receptor immobilized onto a sensor chip. SR344 was biotinylated according to a method known to persons skilled in the art, and the biotinylated SR344 was immobilized on the sensor chip via streptavidin by utilizing the affinity between streptavidin and biotin. All the measurements were carried out at 37° C., and the mobile phase buffer contained 10 mM MES (pH 5.8), 150 mM NaCl and 0.05% TWEEN® 20 (polyoxyethelene sorbitan monolaurate). The pH-dependent binding clones were injected therein under the condition of pH 7.4 and allowed to bind to SR344 (injection sample buffer: 10 mM MES (pH 7.4), 150 mM NaCl, 0.05% TWEEN® 20 (polyoxyethelene sorbitan monolaurate)), and the pH-dependent dissociation of each clone at the mobile phase pH of 5.8 was observed (FIG. 10).
The dissociation rate […]) at pH 5.8 was calculated using Biacore T100™ Evaluation Software (GE Healthcare) by fitting only the dissociation phase at pH 5.8, where 0.5 μg/mL of the sample was bound in 10 mM MES (pH 7.4), 150 mM NaCl, and 0.05% TWEEN® 20 (polyoxyethelene sorbitan monolaurate), and dissociated in 10 mM MES (pH 5.8), 150 mM NaCl, and 0.05% TWEEN® 20 (polyoxyethelene sorbitan monolaurate). Similarly, the dissociation rate (kd(1/s)) at pH 7.4 was calculated using Biacore T100™ Evaluation Software (GE Healthcare) by fitting only the dissociation phase at pH 7.4, where 0.5 μg/mL of the sample was bound in 10 mM MES (pH 7.4), 150 mM NaCl, and 0.05% TWEEN® 20 (polyoxyethelene sorbitan monolaurate), and dissociated in 10 mM MES (pH 7.4), 150 mM NaCl, and 0.05% TWEEN® 20 (polyoxyethelene sorbitan monolaurate).
On the technique in general: In SPR one partner is held on a chip, and binding of the other changes the refractive index at the surface.

For test [3] the target is unchanged. The experiment in a line: SPR Biacore T100, biotinylated SR344 on streptavidin chip (model of membrane-type IL-6 receptor), antibody 0.25 ug/mL as analyte, bound at pH 7.4, dissociation at pH 5.8, 37 C. The method, then:
Binding to the membrane-type IL-6 receptor was evaluated by evaluating binding to the IL-6 receptor immobilized on a sensor chip. SR344 was biotinylated in accordance with a method known among persons with ordinary skill in the art, and the biotinylated SR344 was immobilized on the sensor chip via streptavidin using the affinity between streptavidin and biotin. All the measurements were carried out at 37° C. The mobile phase buffer was 10 mM MES (pH 5.8), 150 mM NaCl and 0.05% TWEEN® 20 (polyoxyethelene sorbitan monolaurate).
The pH-dependently-binding clones were injected under the condition of pH 7.4 to allow them to bind to SR344, and then, the pH-dependent dissociation of each clone at the pH of the mobile phase, pH 5.8, was observed. The results are shown in FIG. 21 (results for Fv1-M71, Fv1-M73, Fv3-M71, and Fv3-M73 are shown in FIG. 21, while results for other clones are shown in FIGS. 17 and 19). Analyses were carried out in the same manner as in Example 10 and the pH dependencies of the dissociation rate constants of all of the eleven types of clones are shown in Table 12.

Test [4] has the same target. Kind of test: SPR Biacore T100, biotinylated SR344 on streptavidin chip (model of membrane-type IL-6 receptor), antibody 0.25 ug/mL as analyte, bound at pH 7.4, dissociation at pH 7.4, 37 C.

B1: humanized PM1 antibody (wild type, WT) (antibody, human IgG1, kappa, V domains shown)
VH: QVQLQESGPGLVRPSQTLSLTCTVSGYSITSDHAWSWVRQPPGRGLEWIGYISYSGITTYNPSLKSRVTMLRDTSKNQFSLRLSSVTAADTAVYYCARSLARTTAMDYWGQGSLVTVSS
VL: DIQMTQSPSSLSASVGDRVTITCRASQDISSYLNWYQQKPGKAPKLLIYYTSRLHSGVPSRFSGSGSGTDFTFTISSLQPEDIATYYCQQGNTLPYTFGQGTKVEIKR
notes: IgG1; also called WT-IgG1; wild type humanized anti-IL-6 receptor antibody
Consider B1, for which, in test [1], the Kd (as a rule, the equilibrium constant for the complex coming apart) stood at 1.9 nM; the koff – broadly, a measure of how fast the partners let go of each other – stood at 0.00094 s⁻¹; the kon (in general, the rate constant with which the complex forms) is 490000 M⁻¹ s⁻¹. Further, the “kd ratio pH 5.8/pH 7.4” value in test [2] was found to be 1.5. For the same molecule, the koff in test [3] worked out at 0.00025 s⁻¹. For the same molecule, the koff in test [4] stood at 0.00025 s⁻¹.

B2: H3pI/L73 (antibody, IgG1, V domains shown)
VH: QVQLQESGPGLVKPSETLSLTCAVSGHSISHDHAHSWVRQPPGEGLEWIGYISYSGITNYNPSLKGRVTISRDTSKNQFSLKLSSVTAADTAAYYCARSLARTTAMDYWGEGTLVTVSS
VL: DIQMTQSPSSLSASVGDSVTITCQASQHISSHLNWYQQKPGKAPELLIYYGSHLHSGVPSRFSGSGSGTDFTFTISSLEAEDAATYYCGQGNRLPYTFGQGTKVEIE
notes: tested as IgG1; also called H3pI/L73-IgG1; H3pl/L73
On to B2, for which the “kd ratio pH 5.8/pH 7.4” value in test [2] is 11. The koff is 0.00067 s⁻¹ in test [3] and 0.00026 s⁻¹ in test [4].

B3: H170/L82 (antibody, IgG1, V domains shown)
VH: QVQLQESGPGLVKPSETLSLTCAVSGHSISHHHAHSWVRQPPGEGLEWIGYISYSGITHYNPHLKGRVTISRDTSKNQFSLKLSSVTAADTAAYYCARVLARITAMDHWGEGTLVTVSS
VL: DIQMTQSPSSLSASVGDSVTITCQASQDISSHLNWYQQKPGKAPELLIYYGSHLHSGVPSRFSGSGSGTDFTFTISSLEAEDAATYYCGQGNRLPYTFGQGTKVEIE
notes: expressed and purified as IgG (IgG1); also called H170/L82-IgG1
Consider B3, for which, in test [1], the Kd turned out to be 1.6 nM, the koff was determined as 0.0011 s⁻¹ and the kon was 670000 M⁻¹ s⁻¹. In addition, the “kd ratio pH 5.8/pH 7.4” value in test [2] came to 1.9.

B4: Fv4-IgG1 (antibody)
heavy: not shown
light: DIQMTQSPSSLSASVGDSVTITCQASTDISSHLNWYQQKPGKAPELLIYYGSHLLSGVPSRFSGSGSGTDFTFTISSLEAEDAATYYCGQGNRLPYTFGQGTKVEIERTVAAPSVFIFPPSDEQLKSGTASVVCLLNNFYPREAKVQWKVDNALQSGNSQESVTEQDSKDSTYSLSSTLTLSKADYEKHKVYACEVTHQGLSSPVTKSFNRGEC
notes: VH3-IgG1 / VL3-CK
Consider B4, for which, in test [1], the Kd came to 0.97 nM, the koff was determined as 0.00095 s⁻¹ and the kon is 980000 M⁻¹ s⁻¹. The koff in test [3] came out at 0.0026 s⁻¹. For the same molecule, the koff in test [4] was 0.00047 s⁻¹.
